From patent publication JP2007175055A (dated 2007)

B1: soluble recombinant HIV gp120 (baculovirus) (ligand)
chain: not shown
notes: also called r-gp120; HIV r-gp120
B2: mouse monoclonal antibody 5A8 (antibody, V domains shown)
VH: EVKLQESGPELVKPGASVKMSCKASGYTFTSYVIHWVRQKPGQGLDWIGYINPYNDGTDYDEKFKGKATLTSDKSSSTAYMELSSLTSEDSAVYYCAREKDNYATGAWFAYWGQGTTVTVSS
VL: DIVMTQSPSSLAVSVGEKVTMICKSSQSLLYSTNQKNYLAWYQQKPGQSPKLLIYWASTRESGVPDRFTGSGSGTDFTLTISSVKAEDLAVYYCQQYYSYRTFGGGTKLEIK
notes: also called 5A8-2F6; hybridoma ATCC HB 10881 (IVI-10257)

Assays:
[1] = biological target: T1, recombinant soluble human CD4 (AA1-AA375, V1-V4) (human, UniProt P01730 26-400); assay: affinity column of human rsCD4 on Affi-Gel 10
T1 construct: range 1-375; also called rsCD4

[2] = biological target: T2, human CD4 on the cell surface (human, UniProt P01730 26-458); assay: FACS: H9 cells pre-incubated with 10 ug r-gp120; competitors Leu3A and OKT4A
T2 construct: whole, on cells; also called cell surface CD4; CD4+ cells

[3] = biological target: T3, human CD4 V1 polypeptide (AA1-AA113 and/or AA1-AA111) (human, UniProt P01730 26-138); assay: RIA: CD4-V1 competing with 125I-rsCD4 for immobilised antibody
T3 construct: range 1-113; also called CD4 VI

[4] = biological target: T4, rhesus monkey CD4 on circulating and lymph node CD4+ cells (rhesus monkey, UniProt P16003 26-458); assay: FACS of rhesus monkey blood cells, indirect staining
T4 construct: whole, on cells; also called アカゲザルCD4+細胞

[5] = biological target: human CD4 V1V2 polypeptide (AA1-AA180) (human, UniProt P01730 26-205); assay: RIA: CD4-V1V2 (5 ug/ml) competing with 125I-rsCD4 for immobilised antibody

T4 sequence (P16003 26-458): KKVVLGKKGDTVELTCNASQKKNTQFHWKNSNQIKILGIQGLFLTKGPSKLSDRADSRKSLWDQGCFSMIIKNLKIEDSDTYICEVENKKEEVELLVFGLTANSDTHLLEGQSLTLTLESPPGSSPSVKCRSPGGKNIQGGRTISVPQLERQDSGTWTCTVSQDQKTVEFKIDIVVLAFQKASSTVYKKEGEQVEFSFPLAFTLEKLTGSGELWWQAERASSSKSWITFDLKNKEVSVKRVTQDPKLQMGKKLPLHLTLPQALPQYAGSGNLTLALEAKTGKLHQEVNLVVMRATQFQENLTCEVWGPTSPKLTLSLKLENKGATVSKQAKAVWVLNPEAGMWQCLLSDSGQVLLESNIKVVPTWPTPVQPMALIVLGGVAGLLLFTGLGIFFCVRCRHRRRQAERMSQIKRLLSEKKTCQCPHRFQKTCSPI

Binder | binding result [1] | binding result [2] | binding result [3] | binding result [4] | binding result [5]
B1 | binds | binds | – | – | –
B2 | – | – | no binding (tested: 5μg/ml) | binds | binds
